Data reported in US20180002439A1 (INSTITUT NATIONAL DE LA SANTE ET DE LA RECHERCHE MEDICALE …, published 2018).

Experiments:
[1] = biological target: mesothelin as expressed on the plasma membrane of human cells (HeLa, OVCAR-3, SK-OV-3, A1847) (human) (UniProt Q13421); experiment: flow cytometry on HeLa cells, chemically biotinylated antibody, PE-streptavidin, Lineweaver-Burk plot
[2] = biological target: mesothelin as expressed on the plasma membrane of human cells (HeLa, OVCAR-3, SK-OV-3, A1847) (human) (UniProt Q13421); experiment: flow cytometry on Hela cells, chemically biotinylated mAb K1, detection with PE streptavidin [continued) C]
[3] = biological target: T1, mesothelin as expressed on the plasma membrane of human cells (HeLa, OVCAR-3, SK-OV-3, A1847) (human, UniProt Q13421 296-598); experiment: flow cytometry on HeLa cells, chemically biotinylated nanobody, PE-streptavidin, Lineweaver-Burk plot
T1 construct: whole, on cells; also called cellularly expressed mesothelin; cell-surface mesothelin
Method: (§1) FIG. 4: Affinity determination of nanobodies for mesothelin as expressed on the plasma membrane of cells. Hela cells were incubated with serial dilutions of in vitro biotinylated anti-mesothelin Nb-A1 (A), Nb-C6 (B) or commercial mAb K1 antibody (•; (C)). Bound antibodies were detected by flow cytometry using PE-conjugated streptavidin. Insets are Lineweaver-Burk plots used to determine the dissociation constant. Error bars represent the standard deviation of experiments performed in triplicate.
(§2) The affinity of Nb-A1 and Nb-C6 for cellularly expressed mesothelin was determined by flow cytometry using HeLa cells for the antigen as described previously; Even-Desrumeaux et al., Mol Biosyst 8(2012), 2385-2394. Briefly, binding to HeLa cells was detected using flow cytometry after incubation with various concentrations of biotinylated nanobodies followed by PE-labeled streptavidin. Apparent KD values were determined by the equation KD=a*Fₘₐₓ in which (a) is the regression line and Fₘₐₓ is the maximum of fluorescence.

[4] = biological target: T1, mesothelin as expressed on the plasma …; experiment: flow cytometry on Hela cells, chemically biotinylated Nb-A1, detection with PE streptavidin
Method: as §1, §2

T1 sequence (Q13421 other isoform, or with tags, fused parts or gaps limits assumed): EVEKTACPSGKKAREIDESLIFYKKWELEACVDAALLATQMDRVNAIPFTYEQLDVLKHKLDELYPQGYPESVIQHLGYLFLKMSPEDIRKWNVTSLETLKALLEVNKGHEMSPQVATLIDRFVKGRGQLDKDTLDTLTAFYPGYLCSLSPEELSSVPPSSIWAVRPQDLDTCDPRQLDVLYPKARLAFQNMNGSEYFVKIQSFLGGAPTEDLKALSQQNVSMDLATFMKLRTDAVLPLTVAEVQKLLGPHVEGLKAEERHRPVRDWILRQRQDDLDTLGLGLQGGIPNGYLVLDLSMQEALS
Chain of mesothelin as expressed on the plasma membrane of human cells (HeLa, OVCAR-3, SK-OV-3, A1847) (human) (Q13421 other isoform, or with tags, fused parts or gaps limits assumed): as above

Row | Kd [1] [nM] | EC50 (read off the curve) [2] [nM] | Kd [3] [nM] | EC50 (read off the curve) [4] [nM] | Molecule
1 | 2 | 2 | – | – | anti-mesothelin mouse monoclonal antibody K1 (Santa Cruz Biotechnology)
2 | – | – | ~15 | ~20 | Nb-A1 (nanobody A1, comprising amino acid sequence SEQ ID NO:1) (VHH, Llama VHH made in the periplasm of E. coli with a C-terminal hexahistidine tag; For the KD measurement it was chemically biotinylated (NHS-PEO4-biotin); not shown: C-terminal hexahistidine tag, named in words only) VHH: QVQLVQSGGGLVHPGGSLRLSCAASGIDLSLYRMRWYRQAPGKERDLVALITDDGTSYYEDSVKGRFTITRDNPSNKVFLQMNSLKPEDTAVYYCNAETPLSPVNYWGQGTQVTVS
